In patent publication US20050069542A1 (Human Genome Sciences, published 2005):
One block for each binder: values may come before it.

Biological target: T1, flag-tagged soluble TL3 (amino acids 105-251 of SEQ ID NO:234) (Homo sapiens (Human), UniProt O75888 105-250)
T1 construct: Heterologous flag-tagged control protein, immobilized in the ELISA; also called flagged tagged TL-3; not shown: Flag tag
T1 sequence: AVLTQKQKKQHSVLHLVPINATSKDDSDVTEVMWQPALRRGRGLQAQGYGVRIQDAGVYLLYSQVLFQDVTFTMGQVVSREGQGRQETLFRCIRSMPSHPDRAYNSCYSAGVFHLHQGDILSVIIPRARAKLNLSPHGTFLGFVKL
Experiment: phage ELISA on immobilized flag-tagged soluble TL3
How it was run: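 Phage displaying scFvs selected against flag-tagged GMAD were screened by ELISA against immobilized flag-tagged soluble TL3 (residues 105-251) as a heterologous flag-tagged counter-target, to check that binding is GMAD-specific.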

binding result: no binding
B1: GMCC142 (scFv)
scFv: EVQLVQSGAEVKKPGASVTISCKASGYTFTAYYIYWVRQAPGQGLEWMGMSNPNGGYTVYPPNFLGRVTTTPDTSTNTIYMELRSLRSEDTAVYYCARGRGRAPSNAFDFWGRGTLVTVSSGGGGSGGGGSGGGGSALSSELTQDPAVSVALGQTVRITCQGDSLKFYYASWYQQKPGQAPVLVLHGKNNRPSGIPDRFSGSTSRDTASLTITGTQAEDEADYYCNSRDNSDNIVFGTGTKLTVLG

binding result: no binding
B2: GMCC138 (scFv)
scFv: EVQLVETGPGLVKPSQTLSLTCTVSGGSISSGGYYWSWIRQVPGKGLEWIGYNFYNGSTYFNPSLKSRATISIDTTKNQFSLKLSSVTAADTAVYYCARGNGYRYGRWFDPWGRGTLVTVSSGGGGSGGGGSGGGGSALSYELTQPPSVSVSPGQTARITCSGDALPKQYAYWYQQKPGQAPVLVISKDSERPSGIPERFSGSSSGTTVTLTISGVQAEDEADYYCQSADSSGTYWVFGGGTKVTVLG
